Article PMC4268495 (Nature, 2014)

Target: T1, FtsZ (full length, recombinant) (Streptococcus pneumoniae, UniProt A0A0H2ZNE0 1-419)
T1 sequence (looked up): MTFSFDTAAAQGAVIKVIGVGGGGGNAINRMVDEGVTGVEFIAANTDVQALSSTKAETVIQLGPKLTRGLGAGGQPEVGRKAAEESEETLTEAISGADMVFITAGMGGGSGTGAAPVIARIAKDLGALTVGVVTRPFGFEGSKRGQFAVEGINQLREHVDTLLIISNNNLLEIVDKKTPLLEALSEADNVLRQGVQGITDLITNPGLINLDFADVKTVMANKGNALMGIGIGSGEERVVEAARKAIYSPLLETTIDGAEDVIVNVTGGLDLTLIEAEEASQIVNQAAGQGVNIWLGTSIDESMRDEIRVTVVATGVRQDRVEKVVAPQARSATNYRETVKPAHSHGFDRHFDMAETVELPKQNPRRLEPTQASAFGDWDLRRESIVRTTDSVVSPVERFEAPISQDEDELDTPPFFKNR
Assay: SPR

How did the Kd turn out when MSKKRRNRHKKEAQEPQFDFDEAKELTVGQAIRKNEEVEAG (domain or fragment, Streptococcus pneumoniae, UniProt Q8DR55 1-41, looked up) [MapZ N-terminal peptide from Met-1 to Gly-41] was run?
The Kd was 20.4 nM.

B1: MapZ cytoplasmic domain (domain or fragment, Streptococcus pneumoniae, UniProt Q8DR55 1-158, looked up)
chain: MSKKRRNRHKKEAQEPQFDFDEAKELTVGQAIRKNEEVEAGVLPEDSILDKYVKQHRDEIEADKFATRQYKKEEFVETQSLDDLIQEMREAVEKSEASSEEVPSSEDILLPLPLDDEEQGLDPLLLDDENPTEMTEEVEEEQNLSRLDQEDSEKKSKK
With B1 as the binder, how does the Kd read?
The Kd was 8.76 nM.

B2: MapZ-2TE cytoplasmic domain (domain or fragment, Streptococcus pneumoniae, UniProt Q8DR55 1-158, looked up)
chain: MSKKRRNRHKKEAQEPQFDFDEAKELTVGQAIRKNEEVEAGVLPEDSILDKYVKQHRDEIEADKFAERQYKKEEFVEEQSLDDLIQEMREAVEKSEASSEEVPSSEDILLPLPLDDEEQGLDPLLLDDENPTEMTEEVEEEQNLSRLDQEDSEKKSKK
Does B2 bind?
Result: binds
